Experimental data taken from patent US20200306373A1 (Hoffmann-La Roche, published 2020).

Experiments:
murine FAP (mFAP) [1] = biological target: T1, murine FAP (mFAP) (murine, UniProt P97321 1-761); assay: flow cytometry on NIH/3T3-moFAP cells stably overexpressing murine FAP, PE secondary, axis % Binding to murine FAP
T1 construct: Expressed on 3T3-mFAP / NIH/3T3-moFAP cl.34 cells; also called mouse FAP; moFAP
Description: (§1) Briefly, adherent MKN45, NIH/3T3-moFAP or CHO-mICOS cells were detached using trypsin (Gibco, 25300-054), washed and 0.1 million cells were transferred into a 96-round bottom well-plate. […] Thereafter, cells were washed twice with cold PBS 0.1% BSA and further incubated for further 30 min at 4° C. with a labeled secondary antibody (PE-conjugated, #715-116-150 from Jackson Immuno Research Lab, diluted 1 to 50 in FACS buffer). Cells were washed with FACS buffer and the staining was fixed for 20 min at 4° C. in the dark, using 75 μl of 1% PFA in FACS buffer per well. Cells were washed twice with FACS Buffer and re-suspended in FACS Buffer for analysis.
(§2) Fluorescence was analyzed by FACS using a FACS Fortessa (Software FACS Diva). Binding curves and EC₅₀ values were obtained using GraphPadPrism6.

murine ICOS [2] = biological target: T2, murine ICOS (murine, UniProt Q9WVS0 21-200); assay: flow cytometry on CHO cells stably overexpressing murine ICOS, PE secondary, axis % Binding to murine ICOS
T2 construct: in the splenocyte assays the endogenous protein on murine T cells; also called mICOS
T2 sequence: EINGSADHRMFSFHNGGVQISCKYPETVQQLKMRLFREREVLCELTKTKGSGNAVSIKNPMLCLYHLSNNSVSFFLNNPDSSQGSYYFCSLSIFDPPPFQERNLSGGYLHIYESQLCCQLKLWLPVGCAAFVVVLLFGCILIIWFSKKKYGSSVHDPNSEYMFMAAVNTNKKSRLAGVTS
Description: as §1, §2

murine FAP (mFAP) [3] = biological target: T1, murine FAP (mFAP); assay: flow cytometry on NIH/3T3-moFAP cl.34 cells
Description: as §1, §2

murine ICOS [4] = biological target: T2, murine ICOS; assay: flow cytometry on CHO cells expressing murine ICOS
Description: as §1, §2

murine ICOS [5] = biological target: T2, murine ICOS; assay: cell-based or functional assay
murine FAP (mFAP) [6] = biological target: T1, murine FAP (mFAP); assay: flow cytometry on 3T3-mFAP cells
Description: (§3) The staining was fixed for 20 min at 4° C. in the dark, using 75 μl of 1% PFA in FACS buffer per well. Fluorescence was analyzed by FACS using a FACS Fortessa (Software FACS Diva). Binding curves were obtained using GraphPadPrism6 and are shown in FIGS. 6A-6C and 7A-7B, respectively.

murine ICOS [7] = biological target: T2, murine ICOS; assay: flow cytometry on CHO-K1 transfectants expressing murine ICOS
Description: as §3

murine FAP (mFAP) [8] = biological target: T1, murine FAP (mFAP); assay: flow cytometry on 3T3-mFAP cells stably overexpressing murine FAP, median fluorescence intensity
Description: as §3

[9] = biological target: T3, dimeric murine ICOS antigen Fc(kih) fusion molecule (murine, biotinylated at the C-terminal Avi tag (BirA co-expression)); assay: SPR, ProteOn XPR36, 25 C, one-shot kinetics, Fab dilution series over murine ICOS protein, 1:1 Langmuir
T3 construct: also called murine ICOS proteins; biotinylated ICOS-Fc fusion protein
Description: For one-shot kinetics measurements, dilution series of purified monoclonal antibody Fab fragments were injected simultaneously along separate channels 1-5. Buffer (PBST) was injected along the sixth channel to provide an “in-line” blank for referencing. Association rate constants (kₒₙ) and dissociation rate constants (koff) were calculated using a simple one-to-one Langmuir binding model in ProteOn Manager v3.1 software by simultaneously fitting the association and dissociation sensorgrams. The equilibrium dissociation constant (KD) was calculated as the ratio koff/kₒₙ (Table 18).

murine ICOS [10] = biological target: T2, murine ICOS; assay: binding to CHO K1 cells expressing murine ICOS

T1 sequence (P97321 whole entry): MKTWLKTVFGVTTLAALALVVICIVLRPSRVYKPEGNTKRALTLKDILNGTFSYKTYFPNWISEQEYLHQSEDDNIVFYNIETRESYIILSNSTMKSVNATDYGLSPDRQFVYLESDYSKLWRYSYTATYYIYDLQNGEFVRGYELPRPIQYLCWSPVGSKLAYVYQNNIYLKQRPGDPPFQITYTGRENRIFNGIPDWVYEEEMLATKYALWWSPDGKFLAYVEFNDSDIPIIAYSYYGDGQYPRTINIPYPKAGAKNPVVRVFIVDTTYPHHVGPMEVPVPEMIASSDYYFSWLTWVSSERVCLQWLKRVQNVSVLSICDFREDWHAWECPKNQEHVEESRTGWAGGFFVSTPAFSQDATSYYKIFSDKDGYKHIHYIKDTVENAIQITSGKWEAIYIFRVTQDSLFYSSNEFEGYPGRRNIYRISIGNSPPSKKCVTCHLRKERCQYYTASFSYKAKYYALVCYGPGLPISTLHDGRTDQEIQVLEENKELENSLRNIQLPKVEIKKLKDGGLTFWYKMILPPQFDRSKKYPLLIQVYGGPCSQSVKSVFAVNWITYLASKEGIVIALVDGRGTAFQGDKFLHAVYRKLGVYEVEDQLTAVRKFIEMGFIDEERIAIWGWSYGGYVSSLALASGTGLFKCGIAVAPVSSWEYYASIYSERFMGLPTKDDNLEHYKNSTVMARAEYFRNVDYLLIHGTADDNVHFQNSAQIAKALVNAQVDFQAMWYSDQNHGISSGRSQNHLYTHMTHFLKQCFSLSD

B1: ICOS(16E09)-FAP(28H1) 2+1, FAP-targeted anti-murine ICOS_2+1, mIgG1 DAPG, bivalent murine ICOS (16E09), monovalent FAP (28H1) (bispecific antibody)
heavy 1: EVQLVQSGAEVKKPGESLKISCKGSGYSFTSYWIGWVRQMPGKGLEWMGIIYPGDSDTRYSPSFQGQVTISADKSISTAYLQWSSLKASDTAMYYCARSSGPYGLYLDYWGQGTLVTVSSAKTTPPSVYPLAPGSAAQTNSMVTLGCLVKGYFPEPVTVTWNSGSLSSGVHTFPAVLQSDLYTLSSSVTVPSSTWPSQTVTCNVAHPASSTKVDKKIVPRDCGCKPCICTVPEVSSVFIFPPKPKDVLTITLTPKVTCVVVAISKDDPEVQFSWFVDDVEVHTAQTKPREEQINSTFRSVSELPIMHQDWLNGKEFKCRVNSAAFGAPIEKTISKTKGRPKAPQVYTIPPPKEQMAKDKVSLTCMITNFFPEDITVEWQWNGQPAENYDNTQPIMDTDGSYFVYSDLNVQKSNWEAGNTFTCSVLHEGLHNHHTEKSLSHSPGGGGGSGGGGSGGGGSGGGGSEIVLTQSPGTLSLSPGERATLSCRASQSVSRSYLAWYQQKPGQAPRLLIIGASTRATGIPDRFSGSGSGTDFTLTISRLEPEDFAVYYCQQGQVIPPTFGQGTKVEIK
heavy 2: EVQLVQSGAEVKKPGESLKISCKGSGYSFTSYWIGWVRQMPGKGLEWMGIIYPGDSDTRYSPSFQGQVTISADKSISTAYLQWSSLKASDTAMYYCARSSGPYGLYLDYWGQGTLVTVSSAKTTPPSVYPLAPGSAAQTNSMVTLGCLVKGYFPEPVTVTWNSGSLSSGVHTFPAVLQSDLYTLSSSVTVPSSTWPSQTVTCNVAHPASSTKVDKKIVPRDCGCKPCICTVPEVSSVFIFPPKPKDVLTITLTPKVTCVVVAISKDDPEVQFSWFVDDVEVHTAQTKPREEQINSTFRSVSELPIMHQDWLNGKEFKCRVNSAAFGAPIEKTISKTKGRPKAPQVYTIPPPKKQMAKDKVSLTCMITNFFPEDITVEWQWNGQPAENYKNTQPIMKTDGSYFVYSKLNVQKSNWEAGNTFTCSVLHEGLHNHHTEKSLSHSPGGGGGSGGGGSGGGGSGGGGSEVQLLESGGGLVQPGGSLRLSCAASGFTFSSHAMSWVRQAPGKGLEWVSAIWASGEQYYADSVKGRFTISRDNSKNTLYLQMNSLRAEDTAVYYCAKGWLGNFDYWGQGTLVTVSS
light: not shown
notes: Murine IgG1 DAPG DDKK; also called ICOS(16E09)-FAP(28H1) 2 + 1 muIgG1 DAPG
EC50 (read off the curve) (murine FAP (mFAP) [1]): ~3 nM | EC50 (read off the curve) (murine ICOS [2]): ~3 nM | EC50 (murine FAP (mFAP) [3]): 2.86 nM | EC50 (murine ICOS [4]): 2.88 nM | Fold increase vs TCB only at 3 nM CEA- or FAP-ICOS, % CD69^+CD4^+ (murine ICOS [5]): 1.1 fold | Fold increase vs TCB only at 3 nM CEA- or FAP-ICOS, % CD69^+CD8^+ (murine ICOS [5]): 2.3 fold | Fold increase vs TCB only at 75 nM CEA- or FAP-ICOS, % CD69^+CD4^+ (murine ICOS [5]): 1.1 fold | Fold increase vs TCB only at 75 nM CEA- or FAP-ICOS, % CD69^+CD8^+ (murine ICOS [5]): 2.4 fold

B2: FAP-targeted mICOSL, mIgG1 DAPG, bivalent murine ICOSL (Gly47-Lys279), monovalent FAP (28H1) c-terminal fused of the heavy chain C region (Fc fusion)
chain 1: ETEVGAMVGSNVVLSCIDPHRRHFNLSGLYVYWQIENPEVSVTYYLPYKSPGINVDSSYKNRGHLSLDSMKQGNFSLYLKNVTPQDTQEFTCRVFMNTATELVKILEEVVRLRVAANFSTPVISTSDSSNPGQERTYTCMSKNGYPEPNLYWINTTDNSLIDTALQNNTVYLNKLGLYDVISTLRLPWTSRGDVLCCVENVALHQNITSISQAESFTGNNTKNPQETHNNELKGSPGSSSSSGSADGCKPCICTVPEVSSVFIFPPKPKDVLTITLTPKVTCVVVAISKDDPEVQFSWFVDDVEVHTAQTKPREEQINSTFRSVSELPIMHQDWLNGKEFKCRVNSAAFGAPIEKTISKTKGRPKAPQVYTIPPPKKQMAKDKVSLTCMITNFFPEDITVEWQWNGQPAENYKNTQPIMKTDGSYFVYSKLNVQKSNWEAGNTFTCSVLHEGLHNHHTEKSLSHSPGGGGGSGGGGSGGGGSGGGGSEVQLLESGGGLVQPGGSLRLSCAASGFTFSSHAMSWVRQAPGKGLEWVSAIWASGEQYYADSVKGRFTISRDNSKNTLYLQMNSLRAEDTAVYYCAKGWLGNFDYWGQGTLVTVSS
chain 2: ETEVGAMVGSNVVLSCIDPHRRHFNLSGLYVYWQIENPEVSVTYYLPYKSPGINVDSSYKNRGHLSLDSMKQGNFSLYLKNVTPQDTQEFTCRVFMNTATELVKILEEVVRLRVAANFSTPVISTSDSSNPGQERTYTCMSKNGYPEPNLYWINTTDNSLIDTALQNNTVYLNKLGLYDVISTLRLPWTSRGDVLCCVENVALHQNITSISQAESFTGNNTKNPQETHNNELKGSPGSSSSSGSAGSPGSSSSSGSADGCKPCICTVPEVSSVFIFPPKPKDVLTITLTPKVTCVVVAISKDDPEVQFSWFVDDVEVHTAQTKPREEQINSTFRSVSELPIMHQDWLNGKEFKCRVNSAAFGAPIEKTISKTKGRPKAPQVYTIPPPKEQMAKDKVSLTCMITNFFPEDITVEWQWNGQPAENYDNTQPIMDTDGSYFVYSDLNVQKSNWEAGNTFTCSVLHEGLHNHHTEKSLSHSPGGGGGSGGGGSGGGGSGGGGSEIVLTQSPGTLSLSPGERATLSCRASQSVSRSYLAWYQQKPGQAPRLLIIGASTRATGIPDRFSGSGSGTDFTLTISRLEPEDFAVYYCQQGQVIPPTFGQGTKVEIK
notes: also called FAP-mICOS-L; FAP-mICOSL
EC50 (murine FAP (mFAP) [6]): 71.8 nM | EC50 (murine ICOS [7]): 28.1 nM | EC50 (read off the curve) (murine FAP (mFAP) [8]): ~30 nM

B3: Fab fragment 16E09 (Fab, V domains shown)
VH: EVQLVQSGAEVKKPGESLKISCKGSGYSFTSYWIGWVRQMPGKGLEWMGIIYPGDSDTRYSPSFQGQVTISADKSISTAYLQWSSLKASDTAMYYCARSSGPYGLYLDYWGQGTLVTVSS
VL: not shown
notes: Phage-derived Fab expressed in E. coli TG1 and purified on His GraviTrap columns; also called 16E09 anti-ICOS antibody as Fab fragment; purified Fab fragment 16E09
Kd [9]: 293 nM | binding result (murine ICOS [10]): binds
